Source: patent US20190375846A1 (ULTRAHUMAN ONE, published 2019)

T1: hOX40-Fc
T1 construct: Member of the panel m8; not shown: Fc part and any linker
T1 chain: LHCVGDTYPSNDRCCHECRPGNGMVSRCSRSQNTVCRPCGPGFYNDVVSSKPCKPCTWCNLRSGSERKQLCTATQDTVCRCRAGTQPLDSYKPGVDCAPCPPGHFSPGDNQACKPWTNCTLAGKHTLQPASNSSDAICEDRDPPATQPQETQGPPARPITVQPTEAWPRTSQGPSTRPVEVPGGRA

T2: hDR6-Fc (human, UniProt O75509)
T2 construct: recombinant Fc fusion; Member of the panel m8
T2 sequence (fusion chain, looked up): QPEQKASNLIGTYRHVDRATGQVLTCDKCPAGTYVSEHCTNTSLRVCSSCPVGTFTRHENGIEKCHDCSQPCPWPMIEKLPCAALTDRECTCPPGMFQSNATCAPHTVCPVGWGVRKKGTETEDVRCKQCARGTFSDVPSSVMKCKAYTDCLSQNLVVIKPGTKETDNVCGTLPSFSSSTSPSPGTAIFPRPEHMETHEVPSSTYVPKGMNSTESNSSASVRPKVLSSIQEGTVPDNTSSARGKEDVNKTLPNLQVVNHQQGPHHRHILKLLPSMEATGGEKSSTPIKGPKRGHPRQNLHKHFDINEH

T3: human GITR at the cell surface (human, UniProt Q9Y5U5 26-241)
T3 construct: whole, on cells; The cell type is named in the assay field of each row; also called human GITR+ cells; CHO-K1 human GITR+ cells
T3 sequence (looked up): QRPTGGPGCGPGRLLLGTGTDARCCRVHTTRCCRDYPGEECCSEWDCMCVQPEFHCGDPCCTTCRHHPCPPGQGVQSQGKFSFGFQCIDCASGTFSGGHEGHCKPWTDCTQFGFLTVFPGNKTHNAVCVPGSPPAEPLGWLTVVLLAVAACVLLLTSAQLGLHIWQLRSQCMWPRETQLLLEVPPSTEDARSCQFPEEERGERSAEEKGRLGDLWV

T4: human GITR-Fc (human, UniProt Q9Y5U5 26-161)
T4 construct: Recombinant GITR-Fc; also called hGITR-Fc; hGITR; not shown: Fc part
T4 sequence (looked up): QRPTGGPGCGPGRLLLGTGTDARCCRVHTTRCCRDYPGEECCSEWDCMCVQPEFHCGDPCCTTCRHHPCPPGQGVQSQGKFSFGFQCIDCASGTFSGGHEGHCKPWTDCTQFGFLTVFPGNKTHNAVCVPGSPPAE

B1: chimeric anti-GITR IgG1 mVH/mVL (6C8 murine v-domains) (antibody, V domains shown)
VH: QVTLKESGPGILKPSQTLSLTCSFSGFSLSTSGMGVGWIRQPSGKGLEWLAHIWWDDDKYYNPSLKSQLTISKDTSRNQVFLKITSVDTADAATYYCARTRRYFPFAYWGQGTLVTVSS
VL: DIVMTQSQKFMSTSVGDRVSVTCKASQNVGTNVAWYQQKPGQSPKALIYSASYRYSGVPDRFTGSGSGTDFTLTINNVHSEDLAEYFCQQYNTDPLTFGAGTKLEIK
notes: Full-length human IgG1, kappa; also called GITR-mVH/mVL; chimeric IgG
B2: D-A6 IgG1 (antibody, V domains shown)
VH: EVQLVESGGGLVQPGGSLRLSCAASGFSLSTSGYGVGWVRQAPGKGLEWLAHIWWDDDKYYVDSVKGRFTISRDNAKNSLYLQMNSLRAEDTAVYYCARTRQYFPFAYWGQGTLVTVSS
VL: EIVLTQSPATLSLSPGERATLSCRASQSVGSNLAWYQQKPGQAPRLLIYSASYRYTGIPARFSGSGSGTDFTLTISSLEPEDFAVYYCQQYSTDPLTFGGGTKVEIK
notes: Human IgG1
B3: G-G10 IgG1 (antibody, V domains shown)
VH: EVQLVESGGGLVQPGGSLRLSCAASGFSLSTFGYGVGWVRQAPGKGLEWLAHIWWDDDKYYVDSVKGRFTISRDNAKNSLYLQMNSLRAEDTAVYYCARTRQYFPFAYWGQGTLVTVSS
VL: EIVLTQSPATLSLSPGERATLSCRASQSVGTNLAWYQQKPGQAPRLLIYYASYRYTGIPARFSGSGSGTDFTLTISSLEPEDFAVYYCQQYSNDPLTFGGGTKVEIK
notes: Human IgG1
B4: I-C2 IgG1 (antibody, V domains shown)
VH: EVQLVESGGGLVQPGGSLRLSCAASGFSLSTSGYGVGWVRQAPGKGLEWLAHIWWDDDKYYVDSVKGRFTISRDNAKNSLYLQMNSLRAEDTAVYYCARTRLYFPFAYWGQGTLVTVSS
VL: EIVLTQSPATLSLSPGERATLSCRASQNVGSNLAWYQQKPGQAPRLLIYSASNRYSGIPARFSGSGSGTDFTLTISSLEPEDFAVYYCQQYSTDPLTFGGGTKVEIK
notes: Human IgG1
B5: VH3/VL2 IgG1 (antibody, V domains shown)
VH: EVQLVESGGGLVQPGGSLRLSCAASGFSLSTSGMGVGWVRQAPGKGLEWLAHIWWDDDKYYVDSVKGRFTISRDNAKNSLYLQMNSLRAEDTAVYYCARTRRYFPFAYWGQGTLVTVSS
VL: EIVLTQSPATLSLSPGERATLSCRASQNVGTNVAWYQQKPGQAPRLLIYSASYRYSGIPARFSGSGSGTDFTLTISSLEPEDFAVYYCQQYNTDPLTFGGGTKVEIK
notes: Human IgG1; template of the mutagenesis library; also called G-VH3/VL2; VH3 family

How the values were obtained:
hOX40-Fc = molecular target: T1, hOX40-Fc; test: direct ELISA on coated protein, IgG at 10 µg/ml, OD 450 nm
Procedure: (§1) Off-target homologue binding risk for mVH/mVL (FIG. 8A), VH3/VL2 (FIG. 8B) and lead engineered IgG clones G-G10 (FIG. 8C), I-C2 (FIG. 8D) and D-A6 (FIG. 8E) was examined by direct ELISA on GITR-Fc orthologs and a panel of 13 human TNFRSF and immunoglobulin superfamily proteins (as labelled on each X-axis). Binding to human, cyno and murine GITR-Fcs (h/c/mGITR-Fc) was performed at an IgG concentration of 1 μg/ml. Binding to all other proteins was performed at an IgG concentration of 10 μg/ml.
(§2) Anti-GITR antibodies were tested for polyreactivity by ELISA. Purified, recombinant, target and non-target antigens were coated in 96-well Nunc maxisorp plates at 100 ng per well in carbonate buffer, at 4° C. overnight. Plates were then washed 3× with PBS, blocked with 1% BSA in PBS, then washed 3× with PBS-Tween20. A dilution series of primary antibodies was then applied, plates were washed 3× with PBS-Tween20 followed by application of goat anti-human kappa chain-HRP 1:4,000 secondary antibody. Wells were then washed 3× with PBS-Tween20 and 2× with PBS, 100 μl TMB peroxidase substrate was added per well, the was reaction stopped by adding 100 μl 2M H₂SO₄ and absorbances were read at 450 nm. Anti-GITR antibodies were also tested for binding specificity by flow cytometry. HuT78 cells were activated by incubation with anti-CD3/anti-CD28 beads for 3 days. Naïve cells were incubated in media alone. At the end of the incubation the cells were harvested and the beads removed from the activated cells using a magnet. Cells were incubated with viability dye and then stained with anti-GITR antibodies at 4° C. […] Binding of VH1/VI1 and D-A6 IgG1 proteins were detected by subsequent incubation with a PE labelled goat anti-human IgG. Cells were fixed with 4% PFA before being stored in PBS at 4° C. overnight. Cells were analysed the next day using a BD Fortessa flow cytometer running Diva software. Analysis was performed using FlowJo software.

hDR6-Fc = molecular target: T2, hDR6-Fc; test: as above
Procedure: as §1, §2

h4-1BB-Fc = molecular target: T5, h4-1BB-Fc; test: as above
T5 construct: Member of the panel m8; not shown: Fc part and any linker
T5 sequence (chain, as listed by the source limits assumed): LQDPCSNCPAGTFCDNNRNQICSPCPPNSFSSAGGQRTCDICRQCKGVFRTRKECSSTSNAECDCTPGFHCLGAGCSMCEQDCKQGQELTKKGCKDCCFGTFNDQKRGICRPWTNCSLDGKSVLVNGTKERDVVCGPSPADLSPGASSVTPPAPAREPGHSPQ
Procedure: as §1, §2

[1] = molecular target: T3, human GITR at the cell surface; test: flow cytometry, human GITR-transfected murine blastoma cells, 10,000-13.7 ng/ml
Procedure: Concentration-dependent binding to GITR at the cell surface was analysed using flow cytometry.

[2] = molecular target: T3, human GITR at the cell surface; test: cell-based or functional assay
[3] = molecular target: cynomolgus monkey GITR at the cell surface (cynomolgus monkey); test: cell-based or functional assay
human GITR-Fc = molecular target: T4, human GITR-Fc; test: HTRF competition: unlabelled IgG1 titrated 0.003-100 µg/ml against terbium-labelled VH1/VL1 IgG on biotinylated human GITR-Fc with SA-XL665, 665/615 ratio
Procedure: A competition HTRF assay was established to examine epitope competition against VH1/VL1 IgG by grafted and library-derived clones. The purified VH1/VL1 IgG was labelled with terbium using a labelling kit (CisBio) per the manufacturers instructions. The final reaction mix contained biotinylated human GITR-Fc, SA-XL665 (CisBio), terbium-labelled parental […], and competitor IgG of interest, prepared as described above, in a total reaction volume of 20 μl in 1× assay buffer [50 mM sodium phosphate, pH 7.5, 400 mM potassium fluoride, and 0.1% BSA (w/v)]. Reagents were added sequentially on a MiniTrak Liquid Handling Platform (Perkin-Elmer) into 384-well low-volume black plates (Nunc). Reactions proceeded for 1 h at room temperature, and plates were subsequently read on a plate reader with excitation at 340 nm and two emission readings at 615 nm (measuring input donor fluorescence from VH1-VL1-cryptate) and 665 nm (measuring output acceptor fluorescence from SAXL665). Readings were expressed as 665 nm/615 nm ratios.
To examine the competition of the library-derived clones with the unaltered, closest-germline grafted CDRs of VH1/VL1 IgG, an Homogeneous Time Resolved Fluorescence (HTRF) assay was established. This assay incorporated terbium-labelled VH1/VL1 IgG, Biotinylated hGITR-Fc and streptavidin-XL665, in solution-phase binding. […]

Binder	binding result (hOX40-Fc)	binding result (hDR6-Fc)	binding result (h4-1BB-Fc)	concentration at maximum MFI [1]	EC50 of FcγRIIIa activation, Promega ADCC reporter assay, CHO-K1 target cells expressing human GITR [2]	potency against VH1/VL1 IgG1, ADCC reporter assay on human GITR CHO-K1 cells [2]	EC50 of FcγRIIIa activation, Promega ADCC reporter assay, CHO-K1 target cells expressing cyno GITR [3]	potency against VH1/VL1 IgG1, ADCC reporter assay on cyno GITR CHO-K1 cells [3]	IC50 (read off the curve) (human GITR-Fc)
B1	no binding (tested: 10 µg/ml)	no binding (tested: 10 µg/ml)	no binding (tested: 10 µg/ml)	~1110 ng/mL	–	–	–	–	–
B2	no binding (tested: 10 µg/ml)	no binding (tested: 10 µg/ml)	no binding (tested: 10 µg/ml)	~1110 ng/mL	15.4 nM	2 fold	57.9 nM	2 fold	~1 µg/mL
B3	no binding (tested: 10 µg/ml)	no binding (tested: 10 µg/ml)	no binding (tested: 10 µg/ml)	~1110 ng/mL	–	–	–	–	–
B4	no binding (tested: 10 µg/ml)	no binding (tested: 10 µg/ml)	no binding (tested: 10 µg/ml)	~1110 ng/mL	–	–	–	–	–
B5	no binding (tested: 10 µg/ml)	no binding (tested: 10 µg/ml)	no binding (tested: 10 µg/ml)	~1110 ng/mL	–	–	–	–	–
